This note sets out measurements from patent publication US20090105152A1.

Square brackets hold non-standard residues; d marks the D form. Ends that are not written are not given here. Phe(4-Cl) = N[C@@H](Cc1ccc(Cl)cc1)C(=O)O; Phe(3-F) = N[C@@H](Cc1cccc(F)c1)C(=O)O; Arg(Me) = CNC(=N)NCCC[C@H](N)C(=O)O; Hyp = O=C(O)[C@@H]1C[C@@H](O)CN1; Aib = CC(C)(N)C(=O)O; Ahx = NCCCCCC(=O)O; azaGly = NNC(=O)O

To fix the notation:
B1: des(1)-Ac-[D-Tyr2,Trp3,Thr5,Phe(3F)6,AzaGly7,Arg(Me)9,Trp10]MS10 (peptide)
peptide: Ac-[dY]WNT[Phe(3-F)][azaGly]L[Arg(Me)]W-NH2
SMILES: CNC(=N)NCCC[C@H](NC(=O)[C@H](CC(C)C)NC(=O)NNC(=O)[C@H](Cc1cccc(F)c1)NC(=O)[C@@H](NC(=O)[C@H](CC(N)=O)NC(=O)[C@H](Cc1c[nH]c2ccccc12)NC(=O)[C@@H](Cc1ccc(O)cc1)NC(C)=O)[C@@H](C)O)C(=O)N[C@@H](Cc1c[nH]c2ccccc12)C(N)=O
B2: des(1-2)-[Acp3,Thr5,AzaGly7,Arg(Me)9,Trp10]MS10 (peptide)
peptide: [Ahx]NTF[azaGly]L[Arg(Me)]W-NH2
modifications: N-terminus assumed
SMILES: CNC(=N)NCCC[C@H](NC(=O)[C@H](CC(C)C)NC(=O)NNC(=O)[C@H](Cc1ccccc1)NC(=O)[C@@H](NC(=O)[C@H](CC(N)=O)NC(=O)CCCCCN)[C@@H](C)O)C(=O)N[C@@H](Cc1c[nH]c2ccccc12)C(N)=O
B3: des(1)-Ac-[D-Tyr2,Hyp3,Thr5,Phe(4Cl)6,AzaGly7,Arg(Me)9,Trp10]MS10 (peptide)
peptide: Ac-[dY][Hyp]NT[Phe(4-Cl)][azaGly]L[Arg(Me)]W-NH2
SMILES: CNC(=N)NCCC[C@H](NC(=O)[C@H](CC(C)C)NC(=O)NNC(=O)[C@H](Cc1ccc(Cl)cc1)NC(=O)[C@@H](NC(=O)[C@H](CC(N)=O)NC(=O)[C@@H]1C[C@@H](O)CN1C(=O)[C@@H](Cc1ccc(O)cc1)NC(C)=O)[C@@H](C)O)C(=O)N[C@@H](Cc1c[nH]c2ccccc12)C(N)=O
B4: des(1)-Ac-[D-Tyr2,Gly3,Thr5,Phe(4Cl)6,AzaGly7,Arg(Me)9,Trp10]MS10 (peptide)
peptide: Ac-[dY]GNT[Phe(4-Cl)][azaGly]L[Arg(Me)]W-NH2
SMILES: CNC(=N)NCCC[C@H](NC(=O)[C@H](CC(C)C)NC(=O)NNC(=O)[C@H](Cc1ccc(Cl)cc1)NC(=O)[C@@H](NC(=O)[C@H](CC(N)=O)NC(=O)CNC(=O)[C@@H](Cc1ccc(O)cc1)NC(C)=O)[C@@H](C)O)C(=O)N[C@@H](Cc1c[nH]c2ccccc12)C(N)=O
B5: des(1)-Ac-[D-Tyr2,Aib3,Thr5,Phe(4Cl)6,AzaGly7,Arg(Me)9,Trp10]MS10 (peptide)
peptide: Ac-[dY][Aib]NT[Phe(4-Cl)][azaGly]L[Arg(Me)]W-NH2
SMILES: CNC(=N)NCCC[C@H](NC(=O)[C@H](CC(C)C)NC(=O)NNC(=O)[C@H](Cc1ccc(Cl)cc1)NC(=O)[C@@H](NC(=O)[C@H](CC(N)=O)NC(=O)C(C)(C)NC(=O)[C@@H](Cc1ccc(O)cc1)NC(C)=O)[C@@H](C)O)C(=O)N[C@@H](Cc1c[nH]c2ccccc12)C(N)=O
B6: des(1)-Ac-[D-Tyr2,Trp3,Thr5,Phe(4Cl)6,AzaGly7,Arg(Me)9,Trp10]MS10 (peptide)
peptide: Ac-[dY]WNT[Phe(4-Cl)][azaGly]L[Arg(Me)]W-NH2
SMILES: CNC(=N)NCCC[C@H](NC(=O)[C@H](CC(C)C)NC(=O)NNC(=O)[C@H](Cc1ccc(Cl)cc1)NC(=O)[C@@H](NC(=O)[C@H](CC(N)=O)NC(=O)[C@H](Cc1c[nH]c2ccccc12)NC(=O)[C@@H](Cc1ccc(O)cc1)NC(C)=O)[C@@H](C)O)C(=O)N[C@@H](Cc1c[nH]c2ccccc12)C(N)=O
B7: des(1)-Ac-[D-Tyr2,Hyp3,Thr5,Phe(3F)6,AzaGly7,Arg(Me)9,Trp10]MS10 (peptide)
peptide: Ac-[dY][Hyp]NT[Phe(3-F)][azaGly]L[Arg(Me)]W-NH2
SMILES: CNC(=N)NCCC[C@H](NC(=O)[C@H](CC(C)C)NC(=O)NNC(=O)[C@H](Cc1cccc(F)c1)NC(=O)[C@@H](NC(=O)[C@H](CC(N)=O)NC(=O)[C@@H]1C[C@@H](O)CN1C(=O)[C@@H](Cc1ccc(O)cc1)NC(C)=O)[C@@H](C)O)C(=O)N[C@@H](Cc1c[nH]c2ccccc12)C(N)=O

For the assay, the target named is human OT7T175 (metastin receptor) (human) (UniProt Q969F8). The experiment in a line: cell-based or functional assay.
Sequence of human OT7T175 (metastin receptor) (human) (Q969F8 whole entry L364H): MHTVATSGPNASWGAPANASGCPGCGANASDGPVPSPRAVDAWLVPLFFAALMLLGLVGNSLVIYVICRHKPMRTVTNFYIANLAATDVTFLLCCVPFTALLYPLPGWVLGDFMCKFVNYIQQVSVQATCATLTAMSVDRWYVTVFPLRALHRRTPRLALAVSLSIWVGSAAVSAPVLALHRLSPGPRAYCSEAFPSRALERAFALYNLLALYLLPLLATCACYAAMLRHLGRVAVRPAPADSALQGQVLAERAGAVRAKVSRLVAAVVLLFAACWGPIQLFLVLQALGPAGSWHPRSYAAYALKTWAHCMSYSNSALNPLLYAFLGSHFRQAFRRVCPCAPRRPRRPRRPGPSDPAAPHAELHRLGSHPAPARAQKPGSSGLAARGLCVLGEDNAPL
B1 displayed an intracellular Ca ion level-increasing activity [specific activity to Metastin (1-54)] (relative to Metastin (1-54)) of 0.2.
In turn, B2 registered an intracellular Ca ion level-increasing activity [specific activity to Metastin (1-54)] (relative to Metastin (1-54)) of 8.9.
As to B3, the intracellular Ca ion level-increasing activity [specific activity to Metastin (1-54)] (relative to Metastin (1-54)) was 1.5.
The molecule B4 yielded an intracellular Ca ion level-increasing activity [specific activity to Metastin (1-54)] (relative to Metastin (1-54)) of 1.5.
B5: the intracellular Ca ion level-increasing activity [specific activity to Metastin (1-54)] (relative to Metastin (1-54)) stood at 2.6.
In the case of B6, the intracellular Ca ion level-increasing activity [specific activity to Metastin (1-54)] (relative to Metastin (1-54)) came to 0.6.
For B7 the value was 2.6.
